The values that follow come from patent publication US20230192867A1 (published 2023).

By EC50 is commonly meant the concentration giving half of the maximal effect. A high value points to a need for much substance.

For test [1], the target named is T1, huGARP/hLTGF-β complex (human, UniProt P01137 30-390). Kind of test: cell-based or functional assay.
Test [2] concerns the target T1, huGARP/hLTGF-β complex. The test is described as follows: flow cytometry on activated primary human Tregs, PE secondary antibody. Here is the method: Anti-huGARP antibodies GARP.2, GARP.3, 1H10, 3H5, 22G8 and a hIgG1 isotype control were incubated at 4° C. for 30 minutes with activated Tregs from a healthy donor in a 96 well plate at a starting concentrations of 40 μg/ml followed by serial dilutions. Activated Tregs were prepared from previously isolated and expanded Tregs stimulated for two days with anti-CD3/CD28 activation beads (ThermoFisher, Waltham, Mass., USA) in the presence of 100 units/mL of recombinant human IL-2. An appropriate PE secondary antibody against the primary anti-GARP antibody was applied and washed off after incubation for 15 minutes at 4° C. Samples were processed on a flow cytometer and PE fluorescence intensities analyzed on FLOWJO® flow cytometry system. EC50 calculations were derived using […] PRISM® data analysis software.
Background: Flow cytometry measures light scatter and fluorescence of single cells or particles in a stream.

T1 sequence (chain, as listed by the source, form in doubt, chain 1 of 2): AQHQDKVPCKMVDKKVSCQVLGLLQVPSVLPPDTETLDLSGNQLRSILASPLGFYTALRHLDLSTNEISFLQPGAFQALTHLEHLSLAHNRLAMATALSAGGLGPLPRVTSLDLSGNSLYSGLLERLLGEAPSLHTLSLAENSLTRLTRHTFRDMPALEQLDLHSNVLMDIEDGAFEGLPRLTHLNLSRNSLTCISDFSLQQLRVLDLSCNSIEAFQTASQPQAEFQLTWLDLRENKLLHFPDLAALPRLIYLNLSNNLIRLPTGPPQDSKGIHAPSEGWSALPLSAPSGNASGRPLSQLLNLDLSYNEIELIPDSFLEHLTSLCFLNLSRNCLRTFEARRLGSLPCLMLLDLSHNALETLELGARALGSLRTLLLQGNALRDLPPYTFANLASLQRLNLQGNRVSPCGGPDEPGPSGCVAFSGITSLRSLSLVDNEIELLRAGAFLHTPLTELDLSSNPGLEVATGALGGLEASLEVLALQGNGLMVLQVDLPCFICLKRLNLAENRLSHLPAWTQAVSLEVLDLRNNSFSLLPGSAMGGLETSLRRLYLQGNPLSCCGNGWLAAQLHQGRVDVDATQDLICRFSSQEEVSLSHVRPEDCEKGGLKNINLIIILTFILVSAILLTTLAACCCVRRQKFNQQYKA
T1 sequence (P01137 30-390, form in doubt, chain 2 of 2): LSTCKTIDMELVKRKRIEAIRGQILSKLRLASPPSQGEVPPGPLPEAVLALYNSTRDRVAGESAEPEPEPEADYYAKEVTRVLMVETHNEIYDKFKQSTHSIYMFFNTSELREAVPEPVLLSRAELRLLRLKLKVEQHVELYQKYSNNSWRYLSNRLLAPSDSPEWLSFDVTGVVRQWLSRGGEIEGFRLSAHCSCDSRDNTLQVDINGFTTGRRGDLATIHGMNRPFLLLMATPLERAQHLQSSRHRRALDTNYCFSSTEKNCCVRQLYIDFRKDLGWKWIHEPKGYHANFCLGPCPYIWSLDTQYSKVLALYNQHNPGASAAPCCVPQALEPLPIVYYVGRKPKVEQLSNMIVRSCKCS

B1: anti-huGARP mAb 10H7 (antibody, IgG1, V domains shown)
VH: QVQLVESGGGVVQPGRSLRLSCAASEFTFSSYGMYWVRQAPGKGLEWVSIIWHDGSKKYYVDSVKGRFTISRDNSKNTLYLQMNSLRGEDTAVYYCAREQWESWYLDLWGRGTLVTVSS
VL: not shown
For B1, in the test with huGARP/hLTGF-β complex [1], the “TGF-β release (ELISA of soluble TGF-β after six hours, 3A9 cells expressing huGARP/latent TGF-β complex on αvβ8 integrin)” value amounted to 16 fold.

B2: anti-huGARP antibody GARP.2 (antibody, V domains shown)
VH: B1 VH
VL: not shown
notes: Variant of mAb 10H7 with a human IgG1.1 constant domain in place of the original IgG1; also called 10H7/GARP.2
In the test with huGARP/hLTGF-β complex [2], B2 returned an EC50 of 0.61 nM.
